Laboratory results: the RNAGym collection of RNA variant scans (doi:10.7554/elife.80360)

B1: Hairpin Ribozyme (parent)
chain: GUCCUCUUUCACGUGCGCGUGAAAGAGAGAAGUGAACCAGAGAAACACACGUUGUGGUAUAUUACCUGGUA

Variants of: B1
Experiment: self-cleavage, relative activity (ratio to wild type); higher = more cleavage; co-transcriptional

First: C12U G13A
Second: G13A G17U
The self-cleavage of the first is higher: 0.72 for the first, 0.656 for the second.

Going from G13A A47C to G13A A47G, the self-cleavage falls from 0.352 to 0.185.

Going from C12U G17A to C12U G17C, the self-cleavage falls from 0.91 to 0.578.

Compared with C12A G34U, G13C A41U is lower in self-cleavage: 1.31 for the first, 0.819 for the second.

Compared with G13C A41G, G13C A41C is higher in self-cleavage: 0.498 for the first, 0.892 for the second.

First: G13C A26C
Second: G13A A49C
The self-cleavage of the first is higher: 0.403 for the first, 0.102 for the second.

Compared with C12G U70G, G13C G27A is lower in self-cleavage: 0.615 for the first, 0.314 for the second.

First: C12G A45G
Second: G13U G56A
The self-cleavage of the first is lower: 0.0996 for the first, 0.127 for the second.

First: G13U G56U
Second: G13A G54A
The self-cleavage of the first is lower: 0.135 for the first, 0.443 for the second.

First: G13A G27U
Second: C12U G29C
The self-cleavage of the first is higher: 0.257 for the first, 0.133 for the second.

Compared with C12U G29U, G13A U62A is higher in self-cleavage: 0.0791 for the first, 0.163 for the second.

First: G13U A22G
Second: G13A A26C
The self-cleavage of the first is higher: 0.659 for the first, 0.556 for the second.

Going from G13A A26G to G13A A26U, the self-cleavage falls from 0.778 to 0.529.

First: G13A C50G
Second: G13C G19A
The self-cleavage of the first is lower: 0.316 for the first, 0.753 for the second.

Going from G13C G19C to C12G A31C, the self-cleavage falls from 0.58 to 0.174.

Going from G13A A22U to G13A G51U, the self-cleavage rises from 0.748 to 0.821.

Compared with G13A G51A, G13U G40C is lower in self-cleavage: 0.87 for the first, 0.122 for the second.

Going from G13U G40U to G13U A59G, the self-cleavage falls from 0.153 to 0.0932.

Compared with C12G U60G, C12G G34U is higher in self-cleavage: 0.452 for the first, 1.16 for the second.

Compared with C12G G34A, C12A U20C is lower in self-cleavage: 1.03 for the first, 0.919 for the second.

Going from C12A U20A to G13U G19U, the self-cleavage rises from 0.865 to 0.895.

Going from C12G G32C to G13C C37A, the self-cleavage rises from 0.0993 to 0.204.

Going from G13C C37U to C12U A22C, the self-cleavage rises from 0.508 to 0.831.

Going from G13A U55G to C12U C38U, the self-cleavage rises from 0.112 to 0.523.

Compared with C12U G21U, C12U G21C is lower in self-cleavage: 0.672 for the first, 0.651 for the second.

Going from G13U G17A to C12A U62A, the self-cleavage falls from 0.69 to 0.168.

Compared with C12U U33C, C12G C16U is higher in self-cleavage: 0.187 for the first, 0.812 for the second.

First: G13C C16A
Second: G13C G29C
The self-cleavage of the first is higher: 0.597 for the first, 0.189 for the second.

Going from C12G A24U to G13C U67A, the self-cleavage falls from 0.669 to 0.189.

Compared with C12A A41U, C12A C37U is lower in self-cleavage: 1.13 for the first, 0.578 for the second.

Going from G13A A24G to G13A A24C, the self-cleavage rises from 0.69 to 0.76.

Compared with C12U C66A, G13A G68C is higher in self-cleavage: 0.179 for the first, 0.248 for the second.

First: G13A G68U
Second: C12A G25C
The self-cleavage of the first is lower: 0.218 for the first, 0.346 for the second.

Compared with G13A U70G, G13A U70A is higher in self-cleavage: 0.629 for the first, 0.735 for the second.

Going from G13U G21U to C12A A59G, the self-cleavage falls from 0.53 to 0.226.

Compared with G13C G57A, G13C G57C is lower in self-cleavage: 0.215 for the first, 0.125 for the second.

First: C12U U70C
Second: C12G A39C
The self-cleavage of the first is higher: 0.96 for the first, 0.436 for the second.

First: C12U G27A
Second: G13A C65U
The self-cleavage of the first is higher: 0.328 for the first, 0.285 for the second.

Compared with G13A A36C, G13A A36G is higher in self-cleavage: 0.533 for the first, 0.873 for the second.

Compared with G13A A44C, G13A A44U is lower in self-cleavage: 0.195 for the first, 0.133 for the second.

First: C12U A41C
Second: G13A U33A
The self-cleavage of the first is higher: 0.886 for the first, 0.165 for the second.

First: G13A U33C
Second: G13A U33G
The self-cleavage of the first is higher: 0.139 for the first, 0.136 for the second.

Compared with C12U G57U, C12U G57A is lower in self-cleavage: 0.262 for the first, 0.215 for the second.

First: C12G A71C
Second: C12G A71U
The self-cleavage of the first is higher: 1.3 for the first, 0.655 for the second.

Going from C12U U62A to C12U U58A, the self-cleavage rises from 0.148 to 0.597.

Compared with C12U U58G, C12U A31G is lower in self-cleavage: 0.584 for the first, 0.549 for the second.

Compared with C12A A44C, C12A A44G is higher in self-cleavage: 0.0806 for the first, 0.114 for the second.

First: C12G C50U
Second: G13U C38U
The self-cleavage of the first is higher: 0.291 for the first, 0.231 for the second.

Going from G13U C38A to G13C U52A, the self-cleavage rises from 0.188 to 0.658.

First: G13A A23U
Second: G13A G34A
The self-cleavage of the first is lower: 0.734 for the first, 1.19 for the second.

First: G13A G34U
Second: C12G C65A
The self-cleavage of the first is higher: 1.22 for the first, 0.829 for the second.

Compared with G13A G32U, G13U C65G is lower in self-cleavage: 0.205 for the first, 0.193 for the second.

Compared with G13U C65U, C12U A45C is lower in self-cleavage: 0.301 for the first, 0.201 for the second.

First: G13A A43C
Second: C12U G34A
The self-cleavage of the first is lower: 0.119 for the first, 1.19 for the second.

Going from C12U G34C to C12A U67A, the self-cleavage falls from 1.14 to 0.18.

First: C12A U67G
Second: C12A U67C
The self-cleavage of the first is lower: 0.215 for the first, 0.216 for the second.

Compared with G13U A43C, G13C A39U is higher in self-cleavage: 0.147 for the first, 0.289 for the second.

Compared with G13C G54U, C12G C66U is lower in self-cleavage: 0.532 for the first, 0.369 for the second.

Going from C12G C66G to G13C G51A, the self-cleavage rises from 0.26 to 0.521.

Compared with C12U G54C, G13A G56A is lower in self-cleavage: 0.47 for the first, 0.188 for the second.

First: G13U A45C
Second: C12A A49C
The self-cleavage of the first is higher: 0.141 for the first, 0.0858 for the second.

Going from C12U C18A to C12G C37G, the self-cleavage falls from 1.01 to 0.294.

Going from C12G G25U to G13C U55G, the self-cleavage falls from 0.472 to 0.107.

First: G13C U55C
Second: C12A G17A
The self-cleavage of the first is lower: 0.0845 for the first, 0.746 for the second.

Going from C12A G17U to C12A G17C, the self-cleavage rises from 0.707 to 0.978.

Compared with G13C A36C, G13U G29A is lower in self-cleavage: 0.304 for the first, 0.157 for the second.

First: G13U G29C
Second: G13U A30U
The self-cleavage of the first is lower: 0.133 for the first, 0.164 for the second.

Compared with C12U C50G, G13U G69A is higher in self-cleavage: 0.231 for the first, 0.312 for the second.

Going from G13C G32A to G13C G32U, the self-cleavage falls from 0.12 to 0.027.

Compared with C12G G68U, G13C A28U is higher in self-cleavage: 0.193 for the first, 0.252 for the second.

Compared with G13C A28G, G13A G19A is lower in self-cleavage: 0.85 for the first, 0.806 for the second.

First: C12G A36G
Second: C12G A36C
The self-cleavage of the first is higher: 0.843 for the first, 0.533 for the second.

First: C12G A22G
Second: C12G A22U
The self-cleavage of the first is higher: 0.739 for the first, 0.686 for the second.

Compared with G13A G69C, G13U G42U is higher in self-cleavage: 0.275 for the first, 0.289 for the second.

First: G13U G42A
Second: C12A A71U
The self-cleavage of the first is lower: 0.16 for the first, 0.701 for the second.

Compared with C12A A71C, G13A G40A is lower in self-cleavage: 1.26 for the first, 0.33 for the second.

Compared with C12U A43C, G13U G25A is higher in self-cleavage: 0.105 for the first, 0.559 for the second.

Going from G13U G25U to G13U A26U, the self-cleavage falls from 0.527 to 0.52.

Compared with G13U A26C, G13C G21C is higher in self-cleavage: 0.416 for the first, 0.587 for the second.

First: C12G U63A
Second: C12G U63G
The self-cleavage of the first is lower: 0.194 for the first, 0.204 for the second.

First: G13U C50G
Second: G13U C50A
The self-cleavage of the first is higher: 0.259 for the first, 0.213 for the second.

Compared with G13C U14C, G13C A61C is lower in self-cleavage: 0.583 for the first, 0.155 for the second.

Going from C12U G19C to G13A U58C, the self-cleavage falls from 0.955 to 0.817.

C12G G17A gave a self-cleavage of 0.913.
